Source: article PMC11913275, “Targeting prostate cancer by new bispecific monocyte engager directed to prostate-specific membrane antigen” (PLOS One, 2025)

Biological target: T1, Prostate-specific membrane antigen (Homo sapiens, UniProt Q04609)
T1 construct: also called PSMA; glutamate carboxypeptidase II; source: on PSMA-positive PC3-PIP cells
Test: flow cytometry on cells; PSMA-positive PC3-PIP cells (PC3 as negative control) mixed with 5-fold dilution series of the construct, 20 μL, 15 min at 4°C; 5D3-CP33 detected by anti-Strep tag antibody and Alexa Fluor 647 secondary, ch5D3 by anti-human Alexa Fluor 647 secondary; KD by non-linear regression
Details: one partner purified

T1 sequence (Q04609 whole entry): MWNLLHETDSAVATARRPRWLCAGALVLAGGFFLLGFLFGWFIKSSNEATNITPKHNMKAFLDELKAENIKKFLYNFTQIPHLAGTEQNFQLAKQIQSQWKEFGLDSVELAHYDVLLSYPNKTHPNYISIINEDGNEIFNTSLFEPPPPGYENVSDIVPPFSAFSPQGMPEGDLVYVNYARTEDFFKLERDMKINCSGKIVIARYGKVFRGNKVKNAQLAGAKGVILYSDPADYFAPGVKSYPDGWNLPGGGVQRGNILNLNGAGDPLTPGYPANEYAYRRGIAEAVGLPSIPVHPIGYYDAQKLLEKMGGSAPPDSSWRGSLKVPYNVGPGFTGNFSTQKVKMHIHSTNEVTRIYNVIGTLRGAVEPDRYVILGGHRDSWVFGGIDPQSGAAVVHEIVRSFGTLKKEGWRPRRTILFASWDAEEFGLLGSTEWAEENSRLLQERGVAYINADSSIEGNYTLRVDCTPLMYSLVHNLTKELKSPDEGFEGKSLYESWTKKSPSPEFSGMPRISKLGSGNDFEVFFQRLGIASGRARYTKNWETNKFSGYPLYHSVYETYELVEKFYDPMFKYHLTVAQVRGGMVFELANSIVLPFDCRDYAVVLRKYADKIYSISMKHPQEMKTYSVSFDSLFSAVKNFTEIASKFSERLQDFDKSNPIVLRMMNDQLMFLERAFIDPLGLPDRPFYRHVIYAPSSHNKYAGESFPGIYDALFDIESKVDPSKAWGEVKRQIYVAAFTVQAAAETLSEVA

B1: 5D3-CP33 bispecific monocyte engager (5D3-scFv HL fused to the N-terminus of CP33) (bispecific antibody, V domains shown)
VH: EVQLQQSGPELVKPGASVKISCKTSGYAFNTSWMNWVKQRPGQGLEWIGRIYPGDGDTNYNGKFKGKATLTADKSSSTAHMHLSSLTSVDSAVYFCARGEWYLYYFDYWGQGTTLTVSS
VL: DIQMTQTTSSLSASLGDRVTISCSASQGINNFLTWYQQKPDGTLKLLIYYTSSLHSGVPSRFSGSGSGTDYSLTIRNLEPEDIATYYCQQYSNLPFTFGGGTKVEIK
notes: VH of the anti-PSMA antibody 5D3 (scFv HL, heavy then light); linker of the 5D3 scFv HL; VL of the anti-PSMA antibody 5D3; The construct has the BiP secretion signal at its N-terminus (vector pMT/BiP/V5-HisA); About 35 kDa; also called 5D3-CP33 fusion; 5D3-scFv-CP33; not shown: SA-strep II, C-terminal, kept
With B1 the Kd was 3.4 nM.
